Laboratory results reported in patent US20030235577A1, “Methods and compositions for preventing and treating microbial infections” (priority 2002, published 2003).

Tests used:
[1] = test system: S. aureus; test: In vitro antimicrobial activity, co-incubation with S. aureus in 5% LB and CFU count; assay type: cell-based, Staphylococcus aureus; conditions: for direct antimicrobial activity: S. aureus, similar doses and conditions as full-length MMP-12; for antimicrobial activity after heat denaturation: heat denaturation / heat inactivation; for antimicrobial activity after enzymatic inhibition: inhibited with hydroxamic acid, an MMP inhibitor
Protocol: S. aureus co-culture was incubated for 60 minutes with doses of MMP-12 C-terminal. Aliquots of cultures were diluted in PBS at 1:10 and 1:100 dilution. Dilutions were plated on LB agar plates for 18 hour incubation at 37° C. Controls consisted of column fractions that lacked MMP-12 carboxy terminal determined by immunoblotting.
(§1) MMP-12's mechanism of action as a host defense protein was investigated. To test for direct activity, functional full-length recombinant human MMP-12 was incubated with S. aureus in a 5% LB culture. […] MMP-12 enzymatic activity was not required for this antimicrobial effect.
(§2) Mid-log phase bacteria (10^5) were incubated in the absence or presence of purified MMP-12 C-terminal in a total volume of 100 μl of 10 mmol/L sodium phosphate containing 5% (vol/vol) TSB at 37° C. for 1 hour. Serial dilutions were then spread on agarose plates and the number of CFUs were determined after overnight incubation.

[2] = test system: E. coli (K1); test: In vitro antimicrobial activity against E. coli (K1); assay type: cell-based
Protocol: as §2

[3] = test system: K. pneumonia; test: In vitro antimicrobial activity against K. pneumonia; assay type: cell-based; conditions: compared with S. aureus dose response
Protocol: as §1
Recombinant full length human MMP-12 was co-incubated with S. aureus and K. pneumonia for 2 hours. Dose response curve was for recombinant murine carboxy terminal domain against S. aureus and E. coli after one-hour co-incubation.

B1: MMP-2: commercially available full length pro-MMP 2 (protein, UniProt P08253 30-660, looked up)
pro-form: APSPIIKFPGDVAPKTDKELAVQYLNTFYGCPKESCNLFVLKDTLKKMQKFFGLPQTGDLDQNTIETMRKPRCGNPDVANYNFFPRKPKWDKNQITYRIIGYTPDLDPETVDDAFARAFQVWSDVTPLRFSRIHDGEADIMINFGRWEHGDGYPFDGKDGLLAHAFAPGTGVGGDSHFDDDELWTLGEGQVVRVKYGNADGEYCKFPFLFNGKEYNSCTDTGRSDGFLWCSTTYNFEKDGKYGFCPHEALFTMGGNAEGQPCKFPFRFQGTSYDSCTTEGRTDGYRWCGTTEDYDRDKKYGFCPETAMSTVGGNSEGAPCVFPFTFLGNKYESCTSAGRSDGKMWCATTANYDDDRKWGFCPDQGYSLFLVAAHEFGHAMGLEHSQDPGALMAPIYTYTKNFRLSQDDIKGIQELYGASPDIDLGTGPTPTLGPVTPEICKQDIVFDGIAQIRGEIFFFKDRFIWRTVTPRDKPMGPLLVATFWPELPEKIDAVYEAPQEEKAVFFAGNEYWIYSASTLERGYPKPLTSLGLPPDVQRVDAAFNWSKNKKTYIFAGDKFWRYNEVKKKMDPGFPKLIADAWNAIPDNLDAVVDLQGGGHSYFFKGAYYLKLENQSLKSVKFGSIKSDWLGC
modifications: pro-form
- direct antimicrobial activity ([1]; 5% LB culture): did not demonstrate this direct antimicrobial activity

B2: MMP-9: commercially available full length pro-MMP 9 (protein, UniProt P14780 20-707, looked up)
pro-form: APRQRQSTLVLFPGDLRTNLTDRQLAEEYLYRYGYTRVAEMRGESKSLGPALLLLQKQLSLPETGELDSATLKAMRTPRCGVPDLGRFQTFEGDLKWHHHNITYWIQNYSEDLPRAVIDDAFARAFALWSAVTPLTFTRVYSRDADIVIQFGVAEHGDGYPFDGKDGLLAHAFPPGPGIQGDAHFDDDELWSLGKGVVVPTRFGNADGAACHFPFIFEGRSYSACTTDGRSDGLPWCSTTANYDTDDRFGFCPSERLYTQDGNADGKPCQFPFIFQGQSYSACTTDGRSDGYRWCATTANYDRDKLFGFCPTRADSTVMGGNSAGELCVFPFTFLGKEYSTCTSEGRGDGRLWCATTSNFDSDKKWGFCPDQGYSLFLVAAHEFGHALGLDHSSVPEALMYPMYRFTEGPPLHKDDVNGIRHLYGPRPEPEPRPPTTTTPQPTAPPTVCPTGPPTVHPSERPTAGPTGPPSAGPTGPPTAGPSTATTVPLSPVDDACNVNIFDAIAEIGNQLYLFKDGKYWRFSEGRGSRPQGPFLIADKWPALPRKLDSVFEERLSKKLFFFSGRQVWVYTGASVLGPRRLDKLGLGADVAQVTGALRSGRGKMLLFSGRRLWRFDVKAQMVDPRSASEVDRMFPGVPLDTHDVFQYREKAYFCQDRFYWRVSSRSELNQVDQVGYVTYDILQCPED
modifications: pro-form
- direct antimicrobial activity ([1]; 5% LB culture): did not demonstrate this direct antimicrobial activity

B3: MMP-12: functional full-length recombinant human MMP-12 (macrophage elastase), Genbank NP_002417 (protein, listed as Homo sapiens)
chain: MKFLLILLLQATASGALPLNSSTSLEKNNVLFGERYLEKFYGLEINKLPVTKMKYSGNLMKEKIQEMQHFLGLKVTGQLDTSTLEMMHAPRCGVPDLHHFREMPGGPVWRKHYITYRINNYTPDMNREDVDYAIRKAFQVWSNVTPLKFSKINTGMADILVVFARGAHGDFHAFDGKGGILAHAFGPGSGIGGDAHFDEDEFWTTHSGGTNLFLTAVHEIGHSLGLGHSSDPKAVMFPTYKYVDINTFRLSADDIRGIQSLYGDPKENQRLPNPDNSEPALCDPNLSFDAVTTVGNKIFFFKDRFFWLKVSERPKTSVNLISSLWPTLPSGIEAAYEIEARNQVFLFKDDKYWLISNLRPEPNYPKSIHSFGFPNFVKKIDAAVFNPRFYRTYFFVDNQYWRYDERRQMMDPGYPKLITKNFQGIGPKIDAVFYSKNKYYYFFQGSNQFEYDFLLQRITKTLKSNSWFGC
- bacterial kill ([1]; 16 μg/ml, 2-hour incubation, 5% LB culture): 90%
- direct antimicrobial activity ([1]; 5% LB culture): antimicrobial activity
- direct antimicrobial activity ([1]; 5% LB culture, listed as pro-MMP-12): direct anti-microbial effect
- antimicrobial activity after heat denaturation [1]: Neither the denatured MMP-12 or enzymatically inhibited enzyme lost its antimicrobial function
- antimicrobial activity after heat denaturation ([1]; listed as Pro-MMP-12): did not lose its anti-microbial activity
- antimicrobial activity after enzymatic inhibition [1]: Neither the denatured MMP-12 or enzymatically inhibited enzyme lost its antimicrobial function
- antimicrobial activity after enzymatic inhibition ([1]; listed as Pro-MMP-12): did not lose its anti-microbial activity
- antimicrobial activity against E. coli (K1) [2]: antimicrobial activity
- antimicrobial activity against K. pneumonia [3]: antimicrobial activity
